The values below come from article PMC11939060.

Where two headings read alike, the source gives them in different places.

Holding throughout (test): fluorescence polarization
For series [1], the target named is T1, DNMT3B Δ214 (3BΔ214);DNMT3L CLD (3L) (human;human?, UniProt Q9UBC3;Q9UJW3 215-853;179-379, |).
Another series has as its target DNMT3B PWWP K268A (human, UniProt Q9UBC3 206-355, K268A).
The target of another series is DNMT3B PWWP domain (human, UniProt Q9UBC3 206-355).
Series [2] deals with T1, DNMT3B Δ214 (3BΔ214);DNMT3L CLD (3L). This is another data set of the same source.
Series [3] has the same target. The source holds these as a separate data set.
The target is the same in series [4]. This is another data set of the same source.
The target is the same in series [5]. This is another data set of the same source.

T1 sequence (Q9UJW3 179-379, stated change not applied, chain 2 of 2, other chains not shown): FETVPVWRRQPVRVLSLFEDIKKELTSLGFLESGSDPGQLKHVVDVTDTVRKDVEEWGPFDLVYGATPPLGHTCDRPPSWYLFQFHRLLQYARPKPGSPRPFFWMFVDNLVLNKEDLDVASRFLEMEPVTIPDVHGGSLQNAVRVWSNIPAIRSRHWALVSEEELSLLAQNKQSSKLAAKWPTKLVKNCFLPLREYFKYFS

B1: 30-bp FAM dsDNA (dsDNA)
DNA 1: CTGAATACTACTTGCGCTCTCTAACCTGAT
DNA 2: ATCAGGTTAGAGAGCGCAAGTAGTATTCAG
For B1, the equilibrium dissociation constant (Kd) is 3.51 ± 0.28 µM in series [1]; 24.3 ± 2 µM in the series with DNMT3B PWWP K268A; 9.12 ± 0.67 µM with DNMT3B PWWP domain; 2.34 ± 0.15 µM in series [2]; 0.85 ± 0.07 µM in series [3]; 3.5 ± 0.3 µM in series [4]. Further, binding in series [5] was put at a Kd of 1.39 ± 0.12 µM.
